According to US20260116987A1 (Gilead, published 2026):

T1: Human CCR4 expressed on CHO-S cells (human, UniProt P51679 1-360)
T1 construct: whole, on cells; also called CCR4-expressing CHO-S cells
T1 sequence (looked up): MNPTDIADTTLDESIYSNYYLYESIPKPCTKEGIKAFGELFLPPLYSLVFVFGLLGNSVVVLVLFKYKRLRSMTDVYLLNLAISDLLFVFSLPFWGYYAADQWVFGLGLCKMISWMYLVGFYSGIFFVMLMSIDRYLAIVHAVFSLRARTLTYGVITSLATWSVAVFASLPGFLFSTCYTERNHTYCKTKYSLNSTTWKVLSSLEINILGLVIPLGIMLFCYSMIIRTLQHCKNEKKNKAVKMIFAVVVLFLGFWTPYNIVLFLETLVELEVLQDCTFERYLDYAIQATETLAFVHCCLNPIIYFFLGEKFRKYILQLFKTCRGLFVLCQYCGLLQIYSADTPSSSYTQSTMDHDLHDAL


Key:
[1] = molecular target: T2, CCR8-NT.MBP (CCR8 N-terminus peptide aa 1-35 fused with maltose binding protein); test: ForteBio Octet, antibody captured on AHC biosensors, CCR8-NT.MBP as analyte
[2] = molecular target: T3, Human CCR8 (C-C chemokine receptor type 8) expressed on CHO-S cells (human, UniProt P51685 1-355); test: KinExA, on-cell affinity
T3 construct: also called huCCR8; human CCR8-expressing CHO-S cells

[3] = molecular target: T1, Human CCR4 expressed on CHO-S cells; test: flow cytometry
[4] = molecular target: T2, CCR8-NT.MBP (CCR8 N-terminus peptide aa …); test: ForteBio Octet, antibody at 10 µg/ml captured on AHC biosensors, 300 nM CCR8-NT.MBP as analyte
Excerpt: (amino acids 406-440 of SEQ ID NO: 128), Amino acids 1-364 of SEQ ID NO: 128 represent the maltose binding protein.

[5] = molecular target: T3, Human CCR8 (C-C chemokine receptor type …); test: flow cytometry, human CCR8-overexpressing against parental CHO-S cells
Method: The first category of variant (single substitution mutation in the CDR H3) included variants in which each amino acid residue of the heavy chain CDR 3 (i.e., , CDR H3) was iteratively substituted with an alanine residue.
CCR8 binding was determined using flow cytometry according to the same methods used in Example 4, Briefly, antibodies were screened for specific binding to human CCR8 by flow cytometry using human CCR8-overexpressing and parental CHO—S cell line. Antibodies specifically binding to human CCR8 were also tested for binding to CCR4 by flow cytometry.

[6] = molecular target: T3, Human CCR8 (C-C chemokine receptor type …); test: cell-based or functional assay

T3 sequence (P51685 whole entry): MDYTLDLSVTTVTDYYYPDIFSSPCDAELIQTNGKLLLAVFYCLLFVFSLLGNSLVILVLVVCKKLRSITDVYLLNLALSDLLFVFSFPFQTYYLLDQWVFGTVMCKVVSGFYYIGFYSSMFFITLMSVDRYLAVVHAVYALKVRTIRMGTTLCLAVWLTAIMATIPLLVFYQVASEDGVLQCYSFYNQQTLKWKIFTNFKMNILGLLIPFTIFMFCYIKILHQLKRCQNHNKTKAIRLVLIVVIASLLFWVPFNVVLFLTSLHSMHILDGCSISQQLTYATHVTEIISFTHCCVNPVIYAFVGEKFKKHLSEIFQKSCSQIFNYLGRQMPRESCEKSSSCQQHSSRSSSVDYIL

| Binder | Octet (nm shift) [4] | Flow (fold over parent) [5] | ADCC (Fold Induction) [6] | further results |
| --- | --- | --- | --- | --- |
| 7B16-H2.001 (CDR H2 swapped mutant of 7-B16) (antibody, V domains shown, also called CDR swapped variant H2) VH: EVQLVESGGGLVQPKGSLKLSCAASGFTFNTYAMNWVRQAPGKGLEWVARIRSKANSYATAYAASVKDRFTISRDDSQSMLYLQMNNLKTEDTAMYYCVRGLLRYRFFDVWGAGTTVTVSS VL: DIVMTQAEPSVPVTPGESISISCRSSKSLLHSNGNTYLYWFLQRPGQSPQLLIYRMSNLASGVPDRFSGSGSGTAFTLRISRVEAEDVGVYYCMQHLEYPFTFGGGTKLEIKR | – | – | – | Octet Response (nm) [1]: 0.299 nm |
| Humanized 7-B16.001 (antibody, human IgG1, kappa, V domains shown, Humanized) VH: EVQLVESGGGLVQPGGSLKLSCAASGFTFNTYAMNWVRQASGKGLEWVGRIRSKSNNYATYYADSVKDRFTISRDDSKNTAYLQMNSLKTEDTAVYYCVRGLLRYRFFDVWGQGTTVTVSS VL: DIVMTQSPLSLPVTPGEPASISCRSSKSLLHSNGNTYLYWFLQKPGQSPQLLIYRMSNLASGVPDRFSGSGSGTDFTLKISRVEAEDVGVYYCMQHLEYPFTFGGGTKVEIKR | – | – | – | Kd [2]: 0.0159 nM; koff [2]: 7.93e-05 s⁻¹; kon [2]: 4.99e+06 M⁻¹ s⁻¹; binding result [3]: no binding |
| 7B16-H3C2.001 (CDR H3 combo mutant of 7-B16) (antibody, V domains shown) VH: EVQLVESGGGLVQPKGSLKLSCAASGFTFNTYAMNWVRQAPGKGLEWVARIRSKSNNYATYYADSVKDRFTISRDDSQSMLYLQMNNLKTEDTAMYYCARGLLRYRFFDAWGAGTTVTVSS VL: DIVMTQAEPSVPVTPGESISISCRSSKSLLHSNGNTYLYWFLQRPGQSPQLLIYRMSNLASGVPDRFSGSGSGTAFTLRISRVEAEDVGVYYCMQHLEYPFTFGGGTKLEIKR | – | – | – | Octet Response (nm) [1]: 0.357 nm |
| 7B16-H3C1.001 (CDR H3 combo mutant of 7-B16) (antibody, V domains shown) VH: EVQLVESGGGLVQPKGSLKLSCAASGFTFNTYAMNWVRQAPGKGLEWVARIRSKSNNYATYYADSVKDRFTISRDDSQSMLYLQMNNLKTEDTAMYYCARGLLRARFFDVWGAGTTVTVSS VL: DIVMTQAEPSVPVTPGESISISCRSSKSLLHSNGNTYLYWFLQRPGQSPQLLIYRMSNLASGVPDRFSGSGSGTAFTLRISRVEAEDVGVYYCMQHLEYPFTFGGGTKLEIKR | – | – | – | Octet Response (nm) [1]: 0.431 nm |
| 7B16.002 (CDR H3 alanine scan variant of 7-B16) (antibody, human IgG1, kappa, V domains shown) VH: EVQLVESGGGLVQPKGSLKLSCAASGFTFNTYAMNWVRQAPGKGLEWVARIRSKSNNYATYYADSVKDRFTISRDDSQSMLYLQMNNLKTEDTAMYYCARGLLRYRFFDVWGAGTTVTVSS VL: DIVMTQAEPSVPVTPGESISISCRSSKSLLHSNGNTYLYWFLQRPGQSPQLLIYRMSNLASGVPDRFSGSGSGTAFTLRISRVEAEDVGVYYCMQHLEYPFTFGGGTKLEIKR | 0.469 nm | 8 fold | 22.9 fold | – |
| Humanized 7-B16.033 (antibody, human IgG1, kappa, V domains shown, Humanized) VH: EVQLVESGGGLVQPGRSLRLSCTASGFTFATYAMNWVRQAPGKGLEWVARIRSKSNNYATYYADSVKDRFTISRDDSKSILYLQMNSLKTEDTAVYYCVRGLLRYRFFDVWGQGTTVTVSS VL: DIVMTQSPLSLPVTPGEPASISCRSSKSLLHSNGNTYLYWFLQKPGQSPQLLIYRMSNLASGVPDRFSGSGSGTDFTLKISRVEAEDVGVYYCMQHLEYPFTFGGGTKVEIKR | – | – | – | Kd [2]: 0.0746 nM; koff [2]: 0.000391 s⁻¹; kon [2]: 5.25e+06 M⁻¹ s⁻¹; binding result [3]: no binding |
| 7B16.009 (CDR H3 alanine scan variant of 7-B16) (antibody, human IgG1, kappa, V domains shown) VH: EVQLVESGGGLVQPKGSLKLSCAASGFTFNTYAMNWVRQAPGKGLEWVARIRSKSNNYATYYADSVKDRFTISRDDSQSMLYLQMNNLKTEDTAMYYCVRGLLRYAFFDVWGAGTTVTVSS VL: DIVMTQAEPSVPVTPGESISISCRSSKSLLHSNGNTYLYWFLQRPGQSPQLLIYRMSNLASGVPDRFSGSGSGTAFTLRISRVEAEDVGVYYCMQHLEYPFTFGGGTKLEIKR | 0.303 nm | 10 fold | 19.8 fold | – |
| 7B16.008 (CDR H3 alanine scan variant of 7-B16) (antibody, human IgG1, kappa, V domains shown) VH: EVQLVESGGGLVQPKGSLKLSCAASGFTFNTYAMNWVRQAPGKGLEWVARIRSKSNNYATYYADSVKDRFTISRDDSQSMLYLQMNNLKTEDTAMYYCVRGLLRARFFDVWGAGTTVTVSS VL: DIVMTQAEPSVPVTPGESISISCRSSKSLLHSNGNTYLYWFLQRPGQSPQLLIYRMSNLASGVPDRFSGSGSGTAFTLRISRVEAEDVGVYYCMQHLEYPFTFGGGTKLEIKR | 0.436 nm | 9 fold | 24.8 fold | – |
| 7B16.006 (CDR H3 alanine scan variant of 7-B16) (antibody, human IgG1, kappa, V domains shown) VH: EVQLVESGGGLVQPKGSLKLSCAASGFTFNTYAMNWVRQAPGKGLEWVARIRSKSNNYATYYADSVKDRFTISRDDSQSMLYLQMNNLKTEDTAMYYCVRGLARYRFFDVWGAGTTVTVSS VL: DIVMTQAEPSVPVTPGESISISCRSSKSLLHSNGNTYLYWFLQRPGQSPQLLIYRMSNLASGVPDRFSGSGSGTAFTLRISRVEAEDVGVYYCMQHLEYPFTFGGGTKLEIKR | 0.22 nm | 8 fold | 14.1 fold | – |
| 7B16-H3C3.001 (CDR H3 combo mutant of 7-B16) (antibody, V domains shown) VH: EVQLVESGGGLVQPKGSLKLSCAASGFTFNTYAMNWVRQAPGKGLEWVARIRSKSNNYATYYADSVKDRFTISRDDSQSMLYLQMNNLKTEDTAMYYCVRGLLRARFFDAWGAGTTVTVSS VL: DIVMTQAEPSVPVTPGESISISCRSSKSLLHSNGNTYLYWFLQRPGQSPQLLIYRMSNLASGVPDRFSGSGSGTAFTLRISRVEAEDVGVYYCMQHLEYPFTFGGGTKLEIKR | – | – | – | Octet Response (nm) [1]: 0.376 nm |
| 7B16.010 (CDR H3 alanine scan variant of 7-B16) (antibody, human IgG1, kappa, V domains shown) VH: EVQLVESGGGLVQPKGSLKLSCAASGFTFNTYAMNWVRQAPGKGLEWVARIRSKSNNYATYYADSVKDRFTISRDDSQSMLYLQMNNLKTEDTAMYYCVRGLLRYRAFDVWGAGTTVTVSS VL: DIVMTQAEPSVPVTPGESISISCRSSKSLLHSNGNTYLYWFLQRPGQSPQLLIYRMSNLASGVPDRFSGSGSGTAFTLRISRVEAEDVGVYYCMQHLEYPFTFGGGTKLEIKR | 0.155 nm | 4 fold | 1.36 fold | – |
| 7B16.004 (CDR H3 alanine scan variant of 7-B16) (antibody, human IgG1, kappa, V domains shown) VH: EVQLVESGGGLVQPKGSLKLSCAASGFTFNTYAMNWVRQAPGKGLEWVARIRSKSNNYATYYADSVKDRFTISRDDSQSMLYLQMNNLKTEDTAMYYCVRALLRYRFFDVWGAGTTVTVSS VL: DIVMTQAEPSVPVTPGESISISCRSSKSLLHSNGNTYLYWFLQRPGQSPQLLIYRMSNLASGVPDRFSGSGSGTAFTLRISRVEAEDVGVYYCMQHLEYPFTFGGGTKLEIKR | 0.221 nm | 6 fold | 19.5 fold | – |
| 7B16.013 (CDR H3 alanine scan variant of 7-B16) (antibody, human IgG1, kappa, V domains shown) VH: EVQLVESGGGLVQPKGSLKLSCAASGFTFNTYAMNWVRQAPGKGLEWVARIRSKSNNYATYYADSVKDRFTISRDDSQSMLYLQMNNLKTEDTAMYYCVRGLLRYRFFDAWGAGTTVTVSS VL: DIVMTQAEPSVPVTPGESISISCRSSKSLLHSNGNTYLYWFLQRPGQSPQLLIYRMSNLASGVPDRFSGSGSGTAFTLRISRVEAEDVGVYYCMQHLEYPFTFGGGTKLEIKR | 0.383 nm | 9 fold | 25.9 fold | – |
| 7B16.005 (CDR H3 alanine scan variant of 7-B16) (antibody, human IgG1, kappa, V domains shown) VH: EVQLVESGGGLVQPKGSLKLSCAASGFTFNTYAMNWVRQAPGKGLEWVARIRSKSNNYATYYADSVKDRFTISRDDSQSMLYLQMNNLKTEDTAMYYCVRGALRYRFFDVWGAGTTVTVSS VL: DIVMTQAEPSVPVTPGESISISCRSSKSLLHSNGNTYLYWFLQRPGQSPQLLIYRMSNLASGVPDRFSGSGSGTAFTLRISRVEAEDVGVYYCMQHLEYPFTFGGGTKLEIKR | 0.296 nm | 9 fold | 20 fold | – |
| Humanized 1-K17.015 (antibody, human IgG1, kappa, V domains shown, Humanized with hotspot correction) VH: EVQLVQSGAEVKKPGASVKVSCKASGYTFTSYNMHWVRQAPGQRLEWIGAIYPGQGDTSYNQKFKGRATLTADKSASTAYMELSSLRSEDTAVYYCARKGGTPFAYWGQGTLVTVSS VL: DVVMTQSPLSLPVTLGQPASISCRSSQSLVHSNAQTYLYWYQQRPGQSPRLLIYKVSNRFSGVPDRFSGSGSGTDFTLKISRVEAEDVGVYFCSQSTHVPYTFGQGTKLEIKR | – | – | – | Kd [2]: 0.0145 nM; koff [2]: 0.000142 s⁻¹; kon [2]: 9.78e+06 M⁻¹ s⁻¹; binding result [3]: no binding |
| Humanized 1-K17.044 (antibody, human IgG1, kappa, V domains shown, Humanized with hotspot correction) VH: EVQLVQSGAEVKKPGASVKVSCKASGYTFTSYNMHWVRQAPGQGLEWIGAIYPGAGDTSYNQKFKGRATLTADKSTSTAYMELSSLRSEDTAVYYCARKGGTPFAYWGQGTLVTVSS VL: DVVMTQSPLSLPVTLGQPASISCRSSQSLVHSNAATYLYWYQQRPGQSPRLLIYKVSNRFSGVPDRFSGSGSGTDFTLKISRVEAEDVGVYFCSQSTHVPYTFGQGTKLEIKR | – | – | – | Kd [2]: 0.00805 nM; koff [2]: 6.67e-05 s⁻¹; kon [2]: 8.29e+06 M⁻¹ s⁻¹; binding result [3]: no binding |
